From patent US9393271B2, “GHRH agonists for islet cell transplantation and function and the treatment of diabetes” (UNIVERSITY OF MIAMI, priority 2012, dated 2016) come the findings set out here.

Non-standard residues stand in square brackets, D forms with d. No end group written: not given here. *: point of attachment. Phe(F5) = N[C@@H](Cc1c(F)c(F)c(F)c(F)c1F)C(=O)O; Desaminotyrosyl = O=C(CCc1ccc(O)cc1)*; NMeY = CN[C@@H](Cc1ccc(O)cc1)C(=O)O; Agmatine = N=C(N)NCCCCN*; NMeA = CN[C@@H](C)C(=O)O; Nle = CCCC[C@H](N)C(=O)O; Orn = NCCC[C@H](N)C(=O)O; Abu = CC[C@H](N)C(=O)O; Aoc = NCCCCCCCC(=O)O; Ava = NCCCCC(=O)O; GABA = NCCCC(=O)O

Sequences and labels used below:
B1: [Dat1, Gln8, Orn12, Abu15, Orn21, Nle27, Asp28, Apa30]hGHRH(1-30)NH2 (peptide)
peptide: [Desaminotyrosyl]ADAIFTQSYR[Orn]VL[Abu]QLSAR[Orn]LLQDI[Nle]DR[Ava]-NH2
SMILES: CCCC[C@H](NC(=O)[C@@H](NC(=O)[C@H](CC(=O)O)NC(=O)[C@H](CCC(N)=O)NC(=O)[C@H](CC(C)C)NC(=O)[C@H](CC(C)C)NC(=O)[C@H](CCCN)NC(=O)[C@H](CCCNC(=N)N)NC(=O)[C@H](C)NC(=O)[C@H](CO)NC(=O)[C@H](CC(C)C)NC(=O)[C@H](CCC(N)=O)NC(=O)[C@H](CC)NC(=O)[C@H](CC(C)C)NC(=O)[C@@H](NC(=O)[C@H](CCCN)NC(=O)[C@H](CCCNC(=N)N)NC(=O)[C@H](Cc1ccc(O)cc1)NC(=O)[C@H](CO)NC(=O)[C@H](CCC(N)=O)NC(=O)[C@@H](NC(=O)[C@H](Cc1ccccc1)NC(=O)[C@@H](NC(=O)[C@H](C)NC(=O)[C@H](CC(=O)O)NC(=O)[C@H](C)NC(=O)CCc1ccc(O)cc1)[C@@H](C)CC)[C@@H](C)O)C(C)C)[C@@H](C)CC)C(=O)N[C@@H](CC(=O)O)C(=O)N[C@@H](CCCNC(=N)N)C(=O)NCCCCC(N)=O
B2: [N-Me-Tyr1, Orn12, Abu15, Orn21, Nle27, Asp28, Amc30]hGHRH(1-30)NH2 (peptide)
peptide: [NMeY]ADAIFTNSYR[Orn]VL[Abu]QLSAR[Orn]LLQDI[Nle]DR[Aoc]-NH2
modifications: N-terminus assumed
SMILES: CCCC[C@H](NC(=O)[C@@H](NC(=O)[C@H](CC(=O)O)NC(=O)[C@H](CCC(N)=O)NC(=O)[C@H](CC(C)C)NC(=O)[C@H](CC(C)C)NC(=O)[C@H](CCCN)NC(=O)[C@H](CCCNC(=N)N)NC(=O)[C@H](C)NC(=O)[C@H](CO)NC(=O)[C@H](CC(C)C)NC(=O)[C@H](CCC(N)=O)NC(=O)[C@H](CC)NC(=O)[C@H](CC(C)C)NC(=O)[C@@H](NC(=O)[C@H](CCCN)NC(=O)[C@H](CCCNC(=N)N)NC(=O)[C@H](Cc1ccc(O)cc1)NC(=O)[C@H](CO)NC(=O)[C@H](CC(N)=O)NC(=O)[C@@H](NC(=O)[C@H](Cc1ccccc1)NC(=O)[C@@H](NC(=O)[C@H](C)NC(=O)[C@H](CC(=O)O)NC(=O)[C@H](C)NC(=O)[C@H](Cc1ccc(O)cc1)NC)[C@@H](C)CC)[C@@H](C)O)C(C)C)[C@@H](C)CC)C(=O)N[C@@H](CC(=O)O)C(=O)N[C@@H](CCCNC(=N)N)C(=O)NCCCCCCCC(N)=O
B3: [N-Me-Tyr1, Gln8, Orn12, Abu15, Orn21, Nle27, Asp28]hGHRH(1-29)NH-CH3 (peptide)
peptide: [NMeY]ADAIFTQSYR[Orn]VL[Abu]QLSAR[Orn]LLQDI[Nle]DR-NHMe
modifications: not fully specified
B4: [Dat1, Gln8, His11, Orn12, Abu15, His20, Orn21, Nle27, Asp28]hGHRH(1-29)NH-CH3 (peptide)
peptide: [Desaminotyrosyl]ADAIFTQSYH[Orn]VL[Abu]QLSAH[Orn]LLQDI[Nle]DR-NHMe
modifications: not fully specified
B5: [Ac-N-Me-Tyr1, D-Ala2, Gln8, Orn12, Abu15, Orn21, Nle27, Asp28, Agm29]hGHRH(1-29) (peptide)
peptide: Ac-[NMeY][dA]DAIFTQSYR[Orn]VL[Abu]QLSAR[Orn]LLQDI[Nle]D[Agmatine]
SMILES: CCCC[C@H](NC(=O)[C@@H](NC(=O)[C@H](CC(=O)O)NC(=O)[C@H](CCC(N)=O)NC(=O)[C@H](CC(C)C)NC(=O)[C@H](CC(C)C)NC(=O)[C@H](CCCN)NC(=O)[C@H](CCCNC(=N)N)NC(=O)[C@H](C)NC(=O)[C@H](CO)NC(=O)[C@H](CC(C)C)NC(=O)[C@H](CCC(N)=O)NC(=O)[C@H](CC)NC(=O)[C@H](CC(C)C)NC(=O)[C@@H](NC(=O)[C@H](CCCN)NC(=O)[C@H](CCCNC(=N)N)NC(=O)[C@H](Cc1ccc(O)cc1)NC(=O)[C@H](CO)NC(=O)[C@H](CCC(N)=O)NC(=O)[C@@H](NC(=O)[C@H](Cc1ccccc1)NC(=O)[C@@H](NC(=O)[C@H](C)NC(=O)[C@H](CC(=O)O)NC(=O)[C@@H](C)NC(=O)[C@H](Cc1ccc(O)cc1)N(C)C(C)=O)[C@@H](C)CC)[C@@H](C)O)C(C)C)[C@@H](C)CC)C(=O)N[C@@H](CC(=O)O)C(=O)NCCCCNC(=N)N
B6: [N-Me-Tyr1, Abu2, Orn12, Abu15, Orn21, Nle27, Gab30]hGHRH(1-30)NH2 (peptide)
peptide: [NMeY][Abu]DAIFTNSYR[Orn]VL[Abu]QLSAR[Orn]LLQDI[Nle]SR[GABA]-NH2
modifications: N-terminus assumed
SMILES: CCCC[C@H](NC(=O)[C@@H](NC(=O)[C@H](CC(=O)O)NC(=O)[C@H](CCC(N)=O)NC(=O)[C@H](CC(C)C)NC(=O)[C@H](CC(C)C)NC(=O)[C@H](CCCN)NC(=O)[C@H](CCCNC(=N)N)NC(=O)[C@H](C)NC(=O)[C@H](CO)NC(=O)[C@H](CC(C)C)NC(=O)[C@H](CCC(N)=O)NC(=O)[C@H](CC)NC(=O)[C@H](CC(C)C)NC(=O)[C@@H](NC(=O)[C@H](CCCN)NC(=O)[C@H](CCCNC(=N)N)NC(=O)[C@H](Cc1ccc(O)cc1)NC(=O)[C@H](CO)NC(=O)[C@H](CC(N)=O)NC(=O)[C@@H](NC(=O)[C@H](Cc1ccccc1)NC(=O)[C@@H](NC(=O)[C@H](C)NC(=O)[C@H](CC(=O)O)NC(=O)[C@H](CC)NC(=O)[C@H](Cc1ccc(O)cc1)NC)[C@@H](C)CC)[C@@H](C)O)C(C)C)[C@@H](C)CC)C(=O)N[C@@H](CO)C(=O)N[C@@H](CCCNC(=N)N)C(=O)NCCCC(N)=O
B7: [Dat1, D-Ala2, N-Me-Ala8, Orn12, Abu15, Orn21, Nle27, Asp28, Agm29]hGHRH(1-29) (peptide)
peptide: [Desaminotyrosyl][dA]DAIFT[NMeA]SYR[Orn]VL[Abu]QLSAR[Orn]LLQDI[Nle]D[Agmatine]
SMILES: CCCC[C@H](NC(=O)[C@@H](NC(=O)[C@H](CC(=O)O)NC(=O)[C@H](CCC(N)=O)NC(=O)[C@H](CC(C)C)NC(=O)[C@H](CC(C)C)NC(=O)[C@H](CCCN)NC(=O)[C@H](CCCNC(=N)N)NC(=O)[C@H](C)NC(=O)[C@H](CO)NC(=O)[C@H](CC(C)C)NC(=O)[C@H](CCC(N)=O)NC(=O)[C@H](CC)NC(=O)[C@H](CC(C)C)NC(=O)[C@@H](NC(=O)[C@H](CCCN)NC(=O)[C@H](CCCNC(=N)N)NC(=O)[C@H](Cc1ccc(O)cc1)NC(=O)[C@H](CO)NC(=O)[C@H](C)N(C)C(=O)[C@@H](NC(=O)[C@H](Cc1ccccc1)NC(=O)[C@@H](NC(=O)[C@H](C)NC(=O)[C@H](CC(=O)O)NC(=O)[C@@H](C)NC(=O)CCc1ccc(O)cc1)[C@@H](C)CC)[C@@H](C)O)C(C)C)[C@@H](C)CC)C(=O)N[C@@H](CC(=O)O)C(=O)NCCCCNC(=N)N
B8: [N-Me-Tyr1, D-Ala2, Fpa5-6, Orn12, Abu15, Orn21, Nle27, Asp28]hGHRH(1-29)NH-CH3 (peptide)
peptide: [NMeY][dA]DAI[Phe(F5)]TNSYR[Orn]VL[Abu]QLSAR[Orn]LLQDI[Nle]DR-NHMe
B9: [N-Me-Tyr1, D-Ala2, Fpa5-6, Orn12, Abu15, Orn21, Nle27, Asp28, Agm29]hGHRH(1-29) (peptide)
peptide: [NMeY][dA]DAI[Phe(F5)]TNSYR[Orn]VL[Abu]QLSAR[Orn]LLQDI[Nle]D[Agmatine]
B10: [N-Me-Tyr1, Gln8, Orn12, Abu15, Orn21, Nle27, Gln-Gab30]hGHRH(1-30)NH2 (peptide)
peptide: [NMeY]ADAIFTQSYR[Orn]VL[Abu]QLSAR[Orn]LLQDI[Nle]SRQ-{GABA-NH2}
B11: [Dat1, Gln8, Orn12, Abu15, Orn21, Nle27, Asp28]hGHRH(1-29)NH-CH3 (peptide)
peptide: [Desaminotyrosyl]ADAIFTQSYR[Orn]VL[Abu]QLSAR[Orn]LLQDI[Nle]DR-NHMe
modifications: not fully specified
B12: [N-Me-Tyr1, Gln8, Orn12, Abu15, Orn21, Nle27, Asp28, Apa30]hGHRH(1-30)NH2 (peptide)
peptide: [NMeY]ADAIFTQSYR[Orn]VL[Abu]QLSAR[Orn]LLQDI[Nle]DR[Ava]-NH2
B13: [N-Me-Tyr1, Gln8, Orn12, Abu15, Orn21, Nle27]hGHRH(1-29)NH-CH3 (peptide)
peptide: [NMeY]ADAIFTQSYR[Orn]VL[Abu]QLSAR[Orn]LLQDI[Nle]SR-NHMe
modifications: not fully specified
B14: [N-Me-Tyr1, D-Ala2, Orn12, Abu15, Orn21, Nle27, Asp28, Agm29]hGHRH(1-29) (peptide)
peptide: [NMeY][dA]DAIFTNSYR[Orn]VL[Abu]QLSAR[Orn]LLQDI[Nle]D[Agmatine]
B15: [N-Me-Tyr1, Orn12, Abu15, Orn21, Nle27, Gab30]hGHRH(1-30)NH-CH3 (peptide)
peptide: [NMeY]ADAIFTNSYR[Orn]VL[Abu]QLSAR[Orn]LLQDI[Nle]SR[GABA]-NHMe
B16: [N-Me-Tyr1, D-Ala2, Gln8, Orn12, Abu15, Orn21, Nle27, Asp28, Agm29]hGHRH(1-29) (peptide)
peptide: [NMeY][dA]DAIFTQSYR[Orn]VL[Abu]QLSAR[Orn]LLQDI[Nle]D[Agmatine]

For this test, the target named is T1, GHRH receptor in human pituitary membrane homogenates (human, UniProt Q02643).
T1 sequence: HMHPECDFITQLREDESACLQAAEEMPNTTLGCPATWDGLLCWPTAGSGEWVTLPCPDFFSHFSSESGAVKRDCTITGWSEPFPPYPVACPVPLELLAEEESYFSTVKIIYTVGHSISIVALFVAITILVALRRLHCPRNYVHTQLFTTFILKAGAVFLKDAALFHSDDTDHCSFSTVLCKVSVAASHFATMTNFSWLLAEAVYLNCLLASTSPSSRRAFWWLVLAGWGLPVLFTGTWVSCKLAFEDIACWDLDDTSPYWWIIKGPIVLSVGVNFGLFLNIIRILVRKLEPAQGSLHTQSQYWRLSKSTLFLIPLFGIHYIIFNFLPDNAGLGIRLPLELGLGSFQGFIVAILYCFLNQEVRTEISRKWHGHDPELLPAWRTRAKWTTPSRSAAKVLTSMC
In words: ligand competition, 125I-JV-1-42 displaced, human pituitary membranes.
What is called IC50 is the concentration that gives 50% inhibition. For the molecule B1, the IC50 turned out to be 1.99 nM and the “relative affinity (binding potency) vs JI-38” value (from here on “relative affinity”) worked out at 2.18 JI-38 = 1.

On to B2, for which the IC50 is 2.99 nM and the “relative affinity” value was determined as 1.45 JI-38 = 1.

Regarding B3, the IC50 turned out to be 0.3 nM and the “relative affinity” value was determined as 14.5 JI-38 = 1.

For the molecule B4, the 50% inhibitory concentration (IC50) turned out to be 2.45 nM and the “relative affinity” value is 1.78 JI-38 = 1.

Take B5: the IC50 was 3.44 nM and the “relative affinity” value came to 1.26 JI-38 = 1.

For B6, the IC50 amounted to 1.18 nM and the “relative affinity” value is 3.67 JI-38 = 1.

In the case of B7, the IC50 was found to be 0.86 nM and the “relative affinity” value was found to be 5.06 JI-38 = 1.

With B8, the IC50 is 0.87 nM and the “relative affinity” value was 5 JI-38 = 1.

As for B9, the IC50 is 3.05 nM and the “relative affinity” value came to 1.43 JI-38 = 1.

Regarding B10, the IC50 was 1.22 nM and the “relative affinity” value amounted to 3.57 JI-38 = 1.

For the molecule B11, the IC50 was 3 nM and the “relative affinity” value amounted to 1.45 JI-38 = 1.

For the molecule B12, the half-maximal inhibitory concentration (IC50) came out at 3.8 nM and the “relative affinity” value turned out to be 1.14 JI-38 = 1.

On to B13, for which the IC50 was 1.08 nM and the “relative affinity” value was found to be 4.03 JI-38 = 1.

In the case of B14, the IC50 came out at 1.7 nM and the “relative affinity” value was 2.56 JI-38 = 1.

With B15, the IC50 amounted to 3.02 nM and the “relative affinity” value amounted to 1.44 JI-38 = 1.

Turning to B16, the IC50 was 0.82 nM and the “relative affinity” value was 5.3 JI-38 = 1.
